# Results taken from patent US20150093398A1, “Methods and Compositions for Treating or Preventing Cancer” (MERCK SHARP & DOHME CORP., priority 2005, published 2015).
# B1: 19D12: anti-IGF1R antibody: light chain variable region amino acids 20-128 of SEQ ID NO: 8, heavy chain variable region amino acids 20-137 of SEQ ID NO: 10 (antibody, V domains shown)
# VL: MSPSQLIGFLLLWVPASRGEIVLTQSPGTLSVSPGERATLSCRASQSIGSSLHWYQQKPGQAPRLLIKYASQSLSGIPDRFSGSGSGTDFTLTISRLEPEDFAVYYCHQSSRLPHTFGQGTKVEIKRT
# VH: MEFGLSWVFLVAILKGVQCEVQLVQSGGGLVKPGGSLRLSCAASGFTFSSFAMHWVRQAPGKGLEWISVIDTRGATYYADSVKGRFTISRDNAKNSLYLQMNSLRAEDTAVYYCARLGNFYYGMDVWGQGTTVTVSS
# modifications: variable regions only: LC 20-128, HC 20-137; constant regions lack entries
# How the values were obtained:
# [1] = tested on: SK-N-FI neuroblastoma cells; experiment: SK-N-FI neuroblastoma xenograft tumor growth in mice (04 IGFR-20); type: in vivo, Athymic nude mice; settings: 1 mg 19D12
# [2] = tested on: SJSA-1 osteosarcoma cells; experiment: SJSA-1 osteosarcoma xenograft model (05-IGFR-12), dosing from day 18 post inoculation; type: in vivo, female nude mouse (strain NU/NU)
# Experimental: About 7 million SJSA-1 osteosarcoma cells were inoculated subcutaneously to the flank of each female nude mouse (strain NU/NU from Charles River, age ˜6 wks-old, average weight ˜20 gram). For the experiment set forth in Table 8, dosing was initiated on day 18 post inoculation, when the xenograft tumor reached an average size of about 100 mm^3. Anti-IGF1R antibody (19D12 Light chain F/Heavy chain A (as set forth above)) was given ip twice a week at the dose of either 0.02 mg, 0.1 and 0.5 mg per mouse, while cytotoxic Cytoxan (cyclophosphamide) was given ip twice per week at the dose of 100 mpk for a total of 3 injection during the course of the study. Xenograft tumor size was measured twice per week with a caliper and captured electronically by the LabCat program.
# [3] = tested on: SJSA-1 osteosarcoma cells; experiment: SJSA-1 osteosarcoma xenograft model (05-IGFR-21), dosing from 15 days after inoculation; type: in vivo, female nude mouse (strain NU/NU)
# Experimental: Xenograft tumor size was measured twice per week with a caliper and captured electronically by the LabCat program. […] For the experiments set forth in Table 9, dosing was initiated 15 days after inoculation. […] Xenograft tumor size was measured twice per week with a caliper and captured electronically by the LabCat program.
# [4] = tested on: Hs700T malignant pancreatic cells; experiment: Hs700T pancreatic xenograft tumor growth in mice (04 IGFR-16, 19D12 and Gemzar combination);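 note: subcutaneous flank xenografts in athymic nude mice, treated once tumors averaged 100 mm^3, antibody given intraperitoneally twice weekly, tumor size measured by calipers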
# Experimental: Athymic nude mice were inoculated with tumor cells in the right flank, subcutaneously, along with Matrigel (1:1 cells:gel). In these experiments, 5×10^6 cells/mouse in a 1:1 mix with regular matrigel were inoculated subcutaneously. Tumor size was measured with calipers and the data was entered into the labcat program. Mice were grouped with average size of 100 mm^3. Tumor size and body weight were measured twice weekly.
# In these experiments, mice were dosed twice per week, intraperitoneally (i.p.) with antibody 19D12 and chemotherapeutic agents at the indicated frequency. Tumor size and mouse body weight was measured twice weekly after treatment.
molecule,measurement,setting,value
B1,Tumor Average Size,[1]; Day 12,126 mm^3
same,Tumor Average Size,[1]; Day 15,118 mm^3
same,Tumor Average Size,[1]; Day 19,117 mm^3
same,Tumor Average Size,[1]; Day 22,122 mm^3
same,Mean Tumor size,"[2]; 0.02 mg 19D12, Day 0",98 mm3
same,Mean Tumor size,"[2]; 0.02 mg 19D12, Day 3",121 mm3
same,Mean Tumor size,"[2]; 0.02 mg 19D12, Day 7",197 mm3
same,Mean Tumor size,"[2]; 0.02 mg 19D12, Day 10",272 mm3
same,Mean Tumor size,"[2]; 0.02 mg 19D12, Day 14",423 mm3
same,Mean Tumor size,"[2]; 0.02 mg 19D12, Day 17",675 mm3
same,Mean Tumor size,"[2]; 0.1 mg 19D12, Day 0",96 mm3
same,Mean Tumor size,"[2]; 0.1 mg 19D12, Day 3",121 mm3
same,Mean Tumor size,"[2]; 0.1 mg 19D12, Day 7",144 mm3
same,Mean Tumor size,"[2]; 0.1 mg 19D12, Day 10",231 mm3
same,Mean Tumor size,"[2]; 0.1 mg 19D12, Day 14",378 mm3
same,Mean Tumor size,"[2]; 0.1 mg 19D12, Day 17",431 mm3
same,Mean Tumor size,"[2]; 0.1 mg 19D12, Day 21",1037 mm3
same,Mean Tumor size,"[2]; 0.5 mg 19D12, Day 0",96 mm3
same,Mean Tumor size,"[2]; 0.5 mg 19D12, Day 3",103 mm3
same,Mean Tumor size,"[2]; 0.5 mg 19D12, Day 7",122 mm3
same,Mean Tumor size,"[2]; 0.5 mg 19D12, Day 10",115 mm3
same,Mean Tumor size,"[2]; 0.5 mg 19D12, Day 14",282 mm3
same,Mean Tumor size,"[2]; 0.5 mg 19D12, Day 17",435 mm3
same,Mean Tumor size,"[2]; 0.5 mg 19D12, Day 21",890 mm3
same,growth inhibition of the osteosarcoma tumor (in words),"[2]; ip twice a week, 0.02, 0.1 or 0.5 mg per mouse, summary of Table 8",marked anti-IGF1R-dependent growth inhibition
same,Mean Tumor size,"[3]; 0.04 mg 19D12, Day 0",142 mm3
same,Mean Tumor size,"[3]; 0.04 mg 19D12, Day 4",153 mm3
same,Mean Tumor size,"[3]; 0.04 mg 19D12, Day 7",222 mm3
same,Mean Tumor size,"[3]; 0.04 mg 19D12, Day 11",306 mm3
same,Mean Tumor size,"[3]; 0.04 mg 19D12, Day 14",431 mm3
same,Mean Tumor size,"[3]; 0.1 mg 19D12, Day 0",145 mm3
same,Mean Tumor size,"[3]; 0.1 mg 19D12, Day 4",147 mm3
same,Mean Tumor size,"[3]; 0.1 mg 19D12, Day 7",151 mm3
same,Mean Tumor size,"[3]; 0.1 mg 19D12, Day 11",212 mm3
same,Mean Tumor size,"[3]; 0.1 mg 19D12, Day 14",251 mm3
same,regression of tumor volume (in words),"[3]; ip twice a week, 0.04 or 0.1 mg per mouse, with Cytoxan 50 or 100 mpk once a week, summary of Table 9",anti-IGF1R-dependent regression of tumor volume
same,Tumor Average Size,"[4]; 0.1 mg 19D12, Day 0",74 mm^3
same,Tumor Average Size,"[4]; 0.1 mg 19D12, Day 4",86 mm^3
same,Tumor Average Size,"[4]; 0.1 mg 19D12, Day 7",89 mm^3
same,Tumor Average Size,"[4]; 0.1 mg 19D12, Day 11",98 mm^3
same,Tumor Average Size,"[4]; 0.1 mg 19D12, Day 14",123 mm^3
same,Tumor Average Size,"[4]; 0.1 mg 19D12, Day 18",165 mm^3
same,Tumor Average Size,"[4]; 0.1 mg 19D12, Day 21",187 mm^3
same,Tumor Average Size,"[4]; 0.1 mg 19D12, Day 26",272 mm^3
same,Tumor Average Size,"[4]; 0.1 mg 19D12, Day 29",335 mm^3
same,Tumor Average Size,"[4]; 0.1 mg 19D12, Day 33",371 mm^3
same,Tumor Average Size,"[4]; 0.1 mg 19D12, Day 36",415 mm^3
same,Tumor Average Size,"[4]; 0.5 mg 19D12, Day 0",75 mm^3
same,Tumor Average Size,"[4]; 0.5 mg 19D12, Day 4",70 mm^3
same,Tumor Average Size,"[4]; 0.5 mg 19D12, Day 7",69 mm^3
same,Tumor Average Size,"[4]; 0.5 mg 19D12, Day 11",71 mm^3
same,Tumor Average Size,"[4]; 0.5 mg 19D12, Day 14",93 mm^3
same,Tumor Average Size,"[4]; 0.5 mg 19D12, Day 18",115 mm^3
same,Tumor Average Size,"[4]; 0.5 mg 19D12, Day 21",137 mm^3
same,Tumor Average Size,"[4]; 0.5 mg 19D12, Day 26",239 mm^3
same,Tumor Average Size,"[4]; 0.5 mg 19D12, Day 29",249 mm^3
same,Tumor Average Size,"[4]; 0.5 mg 19D12, Day 33",282 mm^3
same,Tumor Average Size,"[4]; 0.5 mg 19D12, Day 36",334 mm^3
same,Tumor Average Size,"[4]; 1 mg 19D12, Day 0",77 mm^3
same,Tumor Average Size,"[4]; 1 mg 19D12, Day 4",80 mm^3
same,Tumor Average Size,"[4]; 1 mg 19D12, Day 7",85 mm^3
same,Tumor Average Size,"[4]; 1 mg 19D12, Day 11",81 mm^3
same,Tumor Average Size,"[4]; 1 mg 19D12, Day 14",99 mm^3
same,Tumor Average Size,"[4]; 1 mg 19D12, Day 18",128 mm^3
same,Tumor Average Size,"[4]; 1 mg 19D12, Day 21",152 mm^3
same,Tumor Average Size,"[4]; 1 mg 19D12, Day 26",231 mm^3
same,Tumor Average Size,"[4]; 1 mg 19D12, Day 29",280 mm^3
same,Tumor Average Size,"[4]; 1 mg 19D12, Day 33",312 mm^3
same,Tumor Average Size,"[4]; 1 mg 19D12, Day 36",305 mm^3
